Sequences and labels used below:
T1: mouse iRhom2 full length wild type C-terminally tagged with 3 consecutive copies of the T7 epitope (mouse, UniProt Q80WQ6 1-827)
T1 construct: also called miR2-FL-WT-T7; mouse iRhom2 variant
T1 sequence: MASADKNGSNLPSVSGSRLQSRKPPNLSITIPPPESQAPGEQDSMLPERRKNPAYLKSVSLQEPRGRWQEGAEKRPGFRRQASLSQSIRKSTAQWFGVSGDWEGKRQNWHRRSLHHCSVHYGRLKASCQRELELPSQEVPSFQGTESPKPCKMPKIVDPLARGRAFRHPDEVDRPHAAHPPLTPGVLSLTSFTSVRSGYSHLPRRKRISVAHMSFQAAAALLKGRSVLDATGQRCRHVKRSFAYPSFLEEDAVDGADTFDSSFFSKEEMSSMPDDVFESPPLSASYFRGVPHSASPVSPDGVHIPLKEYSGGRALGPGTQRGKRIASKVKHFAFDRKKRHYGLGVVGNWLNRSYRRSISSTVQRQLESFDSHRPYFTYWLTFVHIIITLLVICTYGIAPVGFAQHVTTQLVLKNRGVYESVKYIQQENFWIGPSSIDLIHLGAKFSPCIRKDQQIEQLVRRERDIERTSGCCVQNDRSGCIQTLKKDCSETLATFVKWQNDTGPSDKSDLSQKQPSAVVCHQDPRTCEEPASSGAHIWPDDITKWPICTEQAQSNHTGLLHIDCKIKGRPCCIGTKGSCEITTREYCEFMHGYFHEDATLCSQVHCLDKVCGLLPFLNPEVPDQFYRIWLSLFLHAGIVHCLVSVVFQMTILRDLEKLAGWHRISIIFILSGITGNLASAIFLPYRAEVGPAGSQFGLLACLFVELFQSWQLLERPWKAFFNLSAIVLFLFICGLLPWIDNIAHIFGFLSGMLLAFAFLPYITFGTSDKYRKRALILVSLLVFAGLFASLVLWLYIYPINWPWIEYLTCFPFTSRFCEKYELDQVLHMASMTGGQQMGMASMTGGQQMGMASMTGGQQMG

T2: human iRhom2 full length wild type C-terminally tagged with 3 consecutive copies of the T7 epitope (UniProt Q6PJF5 1-856)
T2 chain: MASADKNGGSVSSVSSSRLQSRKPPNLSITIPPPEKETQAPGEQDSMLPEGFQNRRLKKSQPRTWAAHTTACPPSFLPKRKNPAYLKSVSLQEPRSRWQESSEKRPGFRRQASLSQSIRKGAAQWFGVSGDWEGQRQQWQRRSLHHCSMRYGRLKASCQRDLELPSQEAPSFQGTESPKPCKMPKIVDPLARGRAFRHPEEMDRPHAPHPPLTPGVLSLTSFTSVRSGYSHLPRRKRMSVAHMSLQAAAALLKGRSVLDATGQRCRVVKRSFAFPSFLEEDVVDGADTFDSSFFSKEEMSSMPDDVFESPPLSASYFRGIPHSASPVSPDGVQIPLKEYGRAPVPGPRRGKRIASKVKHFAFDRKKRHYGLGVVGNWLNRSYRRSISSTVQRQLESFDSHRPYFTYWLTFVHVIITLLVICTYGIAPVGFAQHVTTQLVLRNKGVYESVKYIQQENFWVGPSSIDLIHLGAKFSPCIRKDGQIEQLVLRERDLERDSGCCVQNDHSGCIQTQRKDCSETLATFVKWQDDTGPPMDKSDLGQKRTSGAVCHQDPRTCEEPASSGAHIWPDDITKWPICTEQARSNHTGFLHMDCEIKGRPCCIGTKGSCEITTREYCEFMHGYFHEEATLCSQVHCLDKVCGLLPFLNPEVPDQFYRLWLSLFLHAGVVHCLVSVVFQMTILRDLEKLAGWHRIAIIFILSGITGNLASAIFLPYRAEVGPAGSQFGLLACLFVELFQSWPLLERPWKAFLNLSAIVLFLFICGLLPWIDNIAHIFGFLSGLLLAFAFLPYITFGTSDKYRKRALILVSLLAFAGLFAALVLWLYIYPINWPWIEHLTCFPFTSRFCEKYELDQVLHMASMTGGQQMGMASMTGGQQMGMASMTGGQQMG

B1: humanized antibody 42-B-04 (antibody, V domains shown)
VH: QVTLRESGPALVKPTQTLTLTCTFSGFSLSTFGRGVGWIRQPPGKALEWLAHIWWDDEKYYNSALKSRLTISKDTSKNQVVLTITNMDPVDTATYYCARIQNYGSNYWYFDVWGQGTLVTVSS
VL: AIQLTQSPSSLSASVGDRVTITCRASSRISYMFWYQQKPGKAPKVLIYDTSNLASGVPSRFSGSGSGTDYTLTISSLQPEDFATYYCQQWNAYPLTFGQGTKLEIK
notes: Tested as whole humanized antibody produced in CHO cells and detected with anti-human IgG; the general methods speak of human IgG1/Kappa; also called clone 42-B-04
B2: humanized antibody 23-B-04 (antibody, V domains shown)
VH: B1 VH with R34M, Q101S, D111N
VL: B1 VL with R28S, I29V, F33Y
notes: Tested as whole humanized antibody produced in CHO cells and detected with anti-human IgG; the general methods speak of human IgG1/Kappa; also called clone 23-B-04
B3: humanized antibody 42-B-02 (antibody, V domains shown)
VH: B1 VH
VL: B1 VL with A92S
notes: Tested as whole humanized antibody from transient expression of heavy chain/kappa light chain pairs in CHO cells, detected with anti-human IgG; the general methods speak of human IgG1/Kappa; also called clone 42-B-02
B4: humanized antibody 16-B-07 (antibody, V domains shown)
VH: QVTLRESGPALVKPTQTLTLTCTFSGFSLSTFALGVGWIRQPPGKALEWLAHIWWDEDKYYNPALKSRLTISKDTSKNQVVLTITNMDPVDTATYYCARITTYYYGMDYWGQGTLVTVSS
VL: EIVMTQSPDFQSVTPKEKVTITCRASQSIGNHLHWYQQKPDASPKLLIKYASQSISGVPSRFSGSGSGTDFTLTINSLEAEDAATYFCQQSYQWPLTFGQGTKLEIK
notes: Tested as whole humanized antibody produced in CHO cells and detected with anti-human IgG; the general methods speak of human IgG1/Kappa; also called clone 16-B-07
B5: humanized antibody 16-B-03 (antibody, V domains shown)
VH: B4 VH with E57D
VL: B4 VL
notes: Tested as whole humanized antibody produced in CHO cells and detected with anti-human IgG; the general methods speak of human IgG1/Kappa; also called clone 16-B-03
B6: humanized antibody 16-B-05 (antibody, V domains shown)
VH: B4 VH
VL: B4 VL with Q93N
notes: Tested as whole humanized antibody produced in CHO cells and detected with anti-human IgG; the general methods speak of human IgG1/Kappa; The printed LCVD reads SRESGSG where the printed cDNA encodes SRFSGSG; also called clone 16-B-05

Changes are numbered by the printed parent chain.

In one assay the target is T1, mouse iRhom2 full length wild type …. Description: FACS on MEF-DKO-miR2-FL-WT-T7 cells. As for the experimental part:
In brief, immortalized MEF-DKO-EV control cells, MEF-DKO-hiR2-FL-WT-T7 cells and MEF-DKO-miR2-FL-WT-T7 cells were harvested with 10 mM EDTA in PBS, washed and resuspended in FACS buffer (PBS, 3% FBS, 0.05% sodium azide), and seeded in Nunc U-bottom 96-well plates (Thermo Fisher Scientific, USA) at approximately 3×10⁵ cells per well. To pellet cells and remove supernatants, the plates were centrifuged at 1,500 rpm and 4° C. for 3 minutes. For primary staining, cells were resuspended in 100 μl per well of either FACS buffer alone (controls), mouse monoclonal anti-T7 IgG (Merck Millipore, USA) at 3 μg/ml FACS buffer or the humanized antibodies 16-B-03, 16-B-05, 16-B-07, 23-B-04, 42-B-02 and 42-B-04 of the invention also at 3 μg/ml FACS buffer and incubated on ice for 1 hour. Afterwards, plates were centrifuged at 1,500 rpm and 4° C. for 3 minutes and washed twice with 200 μl per well of FACS buffer. For secondary staining of previous anti T7 staining, cells were spun down and resuspended in 100 μl per well of PE-conjugated goat anti-mouse IgG F(ab′)2 detection fragment (Dianova, Germany) diluted 1:100 in FACS buffer. For secondary staining of previous staining with humanized antibodies of invention, cells were spun down and resuspended in 100 μl per well of PE-conjugated goat anti-human IgG F(ab′)2 detection fragment (Dianova, Germany) diluted 1:100 in FACS buffer. Protected from light, the cell suspensions were incubated on ice for 1 hour. Plates were then centrifuged at 1,500 rpm and 4° C. for 3 minutes and washed three times with 200 μl per well of FACS buffer. Finally, cells were resuspended in 150 μl per well of FACS buffer and analyzed using a BD Accuri™ C6 Plus flow cytometer (Becton Dickinson, Germany).
Take B1: the binding result is “no binding (tested: 3 µg/ml)”.
Same read-out and setting: in the case of B2 it was “no binding (tested: 3 µg/ml)”.
Same read-out and setting: in the case of B3 it was “no binding (tested: 3 µg/ml)”.
The same measure, in the same setting: in the case of B4 it was “no binding (tested: 3 µg/ml)”; in that of B5, “no binding (tested: 3 µg/ml)”; in that of B6, “no binding (tested: 3 µg/ml)”.

For another assay, the target named is T2, human iRhom2 full length wild type …. Description: FACS Scatchard.
As to B1, the Kd (commonly the concentration at which binding is half-saturated) was determined as 0.48 nM.
The same measure, in the same setting: in the case of B2 it was 0.58 nM; in that of B3, 0.5 nM.
With B4, the Kd stood at 0.99 nM.
Molecule B5 yielded a Kd of 0.67 nM.
The same measure, in the same setting: in the case of B6 it was 1.07 nM.

The values above are taken from US20240166767A1 (SCIRHOM, published 2024).
